Changes are numbered by the printed parent chain.
How the values were obtained:
Assay in all cases: SPR, antibody captured, C2 as analyte;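 also: biacore SPR at 37 °C, anti-C2 mAbs captured via goat anti-human IgG on CM5 chips, double-referenced sensorgrams fit to a 1:1 kinetic or steady-state model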
[1] = target: T1, human C2 A436S (human, UniProt P06681 21-752)
T1 sequence: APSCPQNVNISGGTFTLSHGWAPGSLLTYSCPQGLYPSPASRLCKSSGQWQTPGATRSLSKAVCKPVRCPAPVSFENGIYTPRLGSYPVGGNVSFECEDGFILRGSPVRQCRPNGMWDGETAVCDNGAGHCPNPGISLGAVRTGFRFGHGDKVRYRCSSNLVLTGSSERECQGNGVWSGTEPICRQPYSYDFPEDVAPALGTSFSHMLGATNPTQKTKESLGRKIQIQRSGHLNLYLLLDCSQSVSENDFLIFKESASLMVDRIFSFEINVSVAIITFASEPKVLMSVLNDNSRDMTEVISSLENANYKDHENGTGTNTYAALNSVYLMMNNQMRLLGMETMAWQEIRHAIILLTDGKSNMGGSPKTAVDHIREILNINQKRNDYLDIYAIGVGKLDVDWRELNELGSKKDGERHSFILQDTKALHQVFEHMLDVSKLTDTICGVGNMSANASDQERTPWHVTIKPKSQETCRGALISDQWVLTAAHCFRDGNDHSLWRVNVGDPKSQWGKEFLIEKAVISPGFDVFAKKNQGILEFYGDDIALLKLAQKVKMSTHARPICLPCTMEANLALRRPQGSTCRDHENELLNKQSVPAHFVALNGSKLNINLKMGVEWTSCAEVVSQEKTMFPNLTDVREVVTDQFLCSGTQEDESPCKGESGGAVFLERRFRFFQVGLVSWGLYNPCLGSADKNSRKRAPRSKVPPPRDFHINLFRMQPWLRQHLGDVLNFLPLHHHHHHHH

[2] = target: T2, human C2 A326S (human, UniProt P06681 21-752)
T2 sequence: T1 sequence with A306S, S416A

[3] = target: T3, human C2 G466A (human, UniProt P06681 21-752)
T3 sequence: T1 sequence with S416A, G446A

[4] = target: T4, human C2 L620A (human, UniProt P06681 21-752)
T4 sequence: T1 sequence with S416A, L600A

B1: RF16-226 (antibody, human IgG4 S228P, lambda)
heavy: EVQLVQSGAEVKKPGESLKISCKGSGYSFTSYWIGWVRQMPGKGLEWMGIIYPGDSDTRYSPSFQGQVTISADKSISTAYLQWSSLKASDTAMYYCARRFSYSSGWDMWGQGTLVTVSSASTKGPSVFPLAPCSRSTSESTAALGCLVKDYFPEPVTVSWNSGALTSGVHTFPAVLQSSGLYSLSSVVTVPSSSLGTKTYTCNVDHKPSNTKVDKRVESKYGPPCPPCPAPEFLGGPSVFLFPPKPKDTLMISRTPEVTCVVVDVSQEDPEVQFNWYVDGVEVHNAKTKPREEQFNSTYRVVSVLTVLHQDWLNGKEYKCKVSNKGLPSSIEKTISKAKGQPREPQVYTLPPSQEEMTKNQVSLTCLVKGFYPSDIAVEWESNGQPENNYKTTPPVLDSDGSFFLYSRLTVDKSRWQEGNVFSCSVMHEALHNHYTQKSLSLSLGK
light: SYELTQPPSVSVSPGQTARITCSGDALTSKYVAWYQQKSGLAPLLVIYEDTRRPSGIPAKFSGSSSGSVATLTISGAHGDDEADYYCYSTDASGHQRVFGGGTKLTVLSQPKAAPSVTLFPPSSEELQANKATLVCLISDFYPGAVTVAWKADGSPVKAGVETTKPSKQSNNKYAASSYLSLTPEQWKSHRSYSCQVTHEGSTVEKTVAPTECS
notes: pH-dependent anti-C2 antibody from a phage display library; also called WT
- Kd [1]: 6.2 nM
- Kd [2]: 13.2 nM
- Kd [3]: 32.4 nM
- Kd [4]: 11.1 nM

From patent US20220332804A1 (CSL INNOVATION, published 2022)
